Positions count from the first letter of the chain named.

This data set addresses T1, CasX variant 515 (synthetic construct).
T1 chain: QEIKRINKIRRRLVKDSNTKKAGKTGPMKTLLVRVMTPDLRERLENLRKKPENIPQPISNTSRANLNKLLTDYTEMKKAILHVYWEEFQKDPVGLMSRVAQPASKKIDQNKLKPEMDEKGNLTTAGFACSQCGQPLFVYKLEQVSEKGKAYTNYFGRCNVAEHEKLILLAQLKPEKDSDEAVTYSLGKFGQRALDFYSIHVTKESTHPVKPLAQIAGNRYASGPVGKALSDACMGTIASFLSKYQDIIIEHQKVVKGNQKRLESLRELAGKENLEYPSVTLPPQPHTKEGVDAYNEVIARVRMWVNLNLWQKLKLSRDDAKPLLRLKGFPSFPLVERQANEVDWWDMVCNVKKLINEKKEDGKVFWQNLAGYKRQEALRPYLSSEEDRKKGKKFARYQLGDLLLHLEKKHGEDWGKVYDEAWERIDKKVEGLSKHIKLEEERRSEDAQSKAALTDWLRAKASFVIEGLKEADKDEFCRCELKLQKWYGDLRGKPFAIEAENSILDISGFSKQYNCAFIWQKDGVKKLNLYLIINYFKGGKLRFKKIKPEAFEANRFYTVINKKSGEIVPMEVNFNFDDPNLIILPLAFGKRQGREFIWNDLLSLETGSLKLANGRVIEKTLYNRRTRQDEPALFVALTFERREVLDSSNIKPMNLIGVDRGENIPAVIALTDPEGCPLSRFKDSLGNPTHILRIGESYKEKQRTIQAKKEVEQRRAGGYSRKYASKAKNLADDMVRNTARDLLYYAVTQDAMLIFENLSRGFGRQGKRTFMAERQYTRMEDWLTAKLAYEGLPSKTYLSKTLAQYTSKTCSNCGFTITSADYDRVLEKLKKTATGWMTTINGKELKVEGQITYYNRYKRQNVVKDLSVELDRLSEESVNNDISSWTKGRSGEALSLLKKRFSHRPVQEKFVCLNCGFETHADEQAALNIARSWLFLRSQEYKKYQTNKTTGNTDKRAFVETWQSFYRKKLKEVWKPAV
Kind of data set: cleavage_in_vitro.

B1: sgRNA 2.7.9 ; 7.9 target (ssRNA ; dsDNA)
RNA: UACUGGCGCUUUUAUCUCAUUACUUUGAGAGCCAUCACCAGCGACUAUGUCGUAUGGGUAAAGCGCUUAUUUAUCGGAGAGAAAUCCGAUAAAUAAGAAGCAUCAAAGGUGUAGUACAAGAGAUAGAA
DNA 1: TTTCAGTGGGGGTGAATTCAGTGTAGTACAAGAGATAGAAAGACCAGTCCTTGCTGAAAG
DNA 2: CTTTCAGCAAGGACTGGTCTTTCTATCTCTTGTACTACACTGAATTCACCCCCACTGAAA
modifications: 5' amino modifier C6
In the case of B1, the activity came out at 0.135 s⁻¹.

B2: sgRNA 174.7.9 ; 7.9 target (ssRNA ; dsDNA)
RNA: ACUGGCGCUUUUAUCUGAUUACUUUGAGAGCCAUCACCAGCGACUAUGUCGUAGUGGGUAAAGCUCCCUCUUCGGAGGGAGCAUCAAAGGUGUAGUACAAGAGAUAGAA
DNA 1: B1 DNA 1
DNA 2: B1 DNA 2
modifications: 5' amino modifier C6
With B2, the activity came out at 0.172 s⁻¹.

B3: sgRNA 235.7.9 ; 7.9 target (ssRNA ; dsDNA)
RNA: ACUGGCGCUUCUAUCUGAUUACUCUGAGCGCCAUCACCAGCGACUAUGUCGUAGUGGGUAAAGCCGCUUACGGACUUCGGUCCGUAAGAGGCAUCAGAGGUGUAGUACAAGAGAUAGAA
DNA 1: B1 DNA 1
DNA 2: B1 DNA 2
modifications: 5' amino modifier C6
Molecule B3 showed an activity of 0.17 s⁻¹.

B4: sgRNA 316.7.9 ; 7.9 target (ssRNA ; dsDNA)
RNA: B2 RNA with U11C, U24C, A29C, A87G
DNA 1: B1 DNA 1
DNA 2: B1 DNA 2
modifications: 5' amino modifier C6
As to B4, the activity came to 0.141 s⁻¹.

B5: sgRNA 2.7.37 ; 7.37 target (ssRNA ; dsDNA)
RNA: UACUGGCGCUUUUAUCUCAUUACUUUGAGAGCCAUCACCAGCGACUAUGUCGUAUGGGUAAAGCGCUUAUUUAUCGGAGAGAAAUCCGAUAAAUAAGAAGCAUCAAAGGGCCGAGAUGUCUCGCUCCG
DNA 1: TGAAGCTGACAGCATTCGGGCCGAGATGTCTCGCTCCGTGGCCTTAGCTGTGCTCGCGCT
DNA 2: AGCGCGAGCACAGCTAAGGCCACGGAGCGAGACATCTCGGCCCGAATGCTGTCAGCTTCA
modifications: 5' amino modifier C6
Consider B5, for which the activity is 0.0204 s⁻¹.

B6: sgRNA 316.7.37 ; 7.37 target (ssRNA ; dsDNA)
RNA: ACUGGCGCUUCUAUCUGAUUACUCUGAGCGCCAUCACCAGCGACUAUGUCGUAGUGGGUAAAGCUCCCUCUUCGGAGGGAGCAUCAGAGGGCCGAGAUGUCUCGCUCCG
DNA 1: B5 DNA 1
DNA 2: B5 DNA 2
modifications: 5' amino modifier C6
The molecule B6 registered an activity of 0.0851 s⁻¹.

B7: sgRNA 235.7.37 ; 7.37 target (ssRNA ; dsDNA)
RNA: ACUGGCGCUUCUAUCUGAUUACUCUGAGCGCCAUCACCAGCGACUAUGUCGUAGUGGGUAAAGCCGCUUACGGACUUCGGUCCGUAAGAGGCAUCAGAGGGCCGAGAUGUCUCGCUCCG
DNA 1: B5 DNA 1
DNA 2: B5 DNA 2
modifications: 5' amino modifier C6
For the molecule B7, the activity turned out to be 0.0647 s⁻¹.

B8: sgRNA 174.7.37 ; 7.37 target (ssRNA ; dsDNA)
RNA: B6 RNA with C11U, C24U, C29A, G87A
DNA 1: B5 DNA 1
DNA 2: B5 DNA 2
modifications: 5' amino modifier C6
As for B8, the activity was 0.0534 s⁻¹.

Source of the values: US20250361525, “AAV VECTORS FOR GENE EDITING” (Scribe Therapeutics Inc., published 2025).
